Assay results published in IntAct's records for PubMed 29039417.

B1: BBSome complex member BBS4 (Homo sapiens), Q96RK4 (parent)
chain: MAEERVATRTQFPVSTESQKPRQKKAPEFPILEKQNWLIHLHYIRKDYEACKAVIKEQLQETQGLCEYAIYVQALIFRLEGNIQESLELFQTCAVLSPQSADNLKQVARSLFLLGKHKAAIEVYNEAAKLNQKDWEISHNLGVCYIYLKQFNKAQDQLHNALNLNRHDLTYIMLGKIHLLEGDLDKAIEVYKKAVEFSPENTELLTTLGLLYLQLGIYQKAFEHLGNALTYDPTNYKAILAAGSMMQTHGDFDVALTKYRVVACAVPESPPLWNNIGMCFFGKKKYVAAISCLKRANYLAPFDWKILYNLGLVHLTMQQYASAFHFLSAAINFQPKMGELYMLLAVALTNLEDIENAKRAYAEAVHLDKCNPLVNLNYAVLLYNQGEKKNALAQYQEMEKKVSLLKDNSSLEFDSEMVEMAQKLGAALQVGEALVWTKPVKDPKSKHQTTSTSKPASFQQPLGSNQALGQAMSSAAAYRTLPSGAGGTSQFTKPPSLPLEPEPAVESSPTETSEQIREK
partner: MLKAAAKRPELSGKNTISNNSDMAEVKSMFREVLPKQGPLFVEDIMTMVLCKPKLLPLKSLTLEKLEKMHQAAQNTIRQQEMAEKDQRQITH

Variants of: B1
Details: with bbip1_human BBIP1, A8MTZ0

Effect of a mutation on the interaction, with no effect:
T512K
T512E
T512A
S464E
S464K
S464A
S457K
S457E
S457A
P455K
P455A
P455E
F458A
F458E
F458K
A485K
A485E
A504E
A504K
M472A
M472K
M472E
G487K
G487A
G487E
A456E
A456K
T492A
T492K
T492E
P482K
P482E
P482A
T449E
T449A
T449K
T510A
T510K
T510E
G463E
G463A
G463K
P495K
P495A
P495E
E502A
E502K
S489E
S489K
S489A
K454E
K454A
Q490E
Q490A
Q490K
Q470A
Q470K
Q470E
L499E
L499A
L499K
S508A
S508K
S508E
S451E
S451K
S451A
R479A
R479E
R479K
L481A
L481E
L481K
L462K
L462A
L462E
E514K
E514A
S453E
S453A
S453K
S483A
S483E
S483K
E506K
E506A
N465A
N465E
N465K
G486E
G486A
G486K
S473E
S473K
S473A
K493A
K493E
S513K
S513E
S513A
P494E
P494K
P494A
F491A
F491K
F491E
L468K
L468A
L468E
L497A
L497K
L497E
T450A
T450K
T450E
P461K
P461A
P461E
Q466K
Q466E
Q466A
Q448A
Q448K
Q448E
P503A
P503E
P503K
A467E
A467K
T480E
T480A
T480K
S474A
S474E
S474K
P501E
P501K
P501A
Q459E
Q459A
Q459K
T488A
T488E
T488K
G469E
G469K
G469A
E511A
E511K
Y478K
Y478E
Y478A
A471K
A471E
P509E
P509A
P509K
S496K
S496A
S496E
T452E
T452K
T452A
A476K
A476E
V505E
V505A
V505K
A475E
A475K
P498E
P498K
P498A
Q460A
Q460K
Q460E
E500K
E500A
A477E
A477K
H447K
H447E
G484K
G484E
G484A
S507A
S507E
S507K
